Test results reported in patent publication US20240238445A1, “INHIBITORS AND USES THEREOF” (NEURACLE SCIENCE CO., LTD., priority 2021, published 2024).
Values belong to the molecule of their own block, whether it stands above or below them. Ends that are not written are not given here.

Tests used:
[1] = target: interaction between Fc conjugated LRRC4B (amino acids 453-576) protein fragment and FAM19A5 protein (Homo sapiens, UniProt Q7Z5A7); experiment: Competitive inhibition assay of chemical compounds, plate coated with Fc conjugated LRRC4B fragment (453-576); assay type: binding; settings: for effect of increasing concentration on LRRC4B-FAM19A5 interaction (in words): increasing concentrations
Experimental: In particular, the following compounds were produced: (1) KB734, (2) KB761, (3) KB763, (4) KB1157, (5) KB1161, (6) KB1542, (7) KB1543, (8) KB2256, (9) KB2258, (10) KB2310, (11) KB2357, (12) KB2718, (13) KB2719, (14) KB3111, (15) KB3112, (16) KB3220, (17) KB3201, (18) KB3250, and (19) KB3251. Then, the ability of the above chemical compounds to inhibit the binding of LRRC4 protein family members to FAM19A5 protein was assessed using a competitive inhibition assay. Briefly, ELISA plates were coated with 100 nM of a Fc conjugated LRRC4B fragment (amino acids 453-576 of SEQ ID NO: 2; SEQ ID NO: 7). Then, recombinant FAM19A5 protein (1 ng/mL) was added to the plates in combination with one of the above chemical compounds (100 μM). Recombinant FAM19A5 protein alone (“CTRL”) or in combination with DMSO was used as control. The plates were incubated at 37° C. and then, the amount of FAM19A5 protein bound to the coated LRRC4B protein fragment was assessed using HRP-conjugated anti-FAM19A5 (1-65) antibody.
Next, to assess whether increasing the concentration of the chemical compounds could improve the inhibitory effect, increasing concentrations of KB734, KB2310, and KB2357 compounds were subjected to the same competitive inhibition assay described above.
To further assess the inhibitory effect of the KB2357 chemical compound on FAM19A5 protein and members of the LRRC4 protein family, the following derivatives of the KB2357 compound were synthesized as described earlier: (1) KB2304, (2) KB2305, (3) KB2308, (4) KB2309, (5) KB2314, (6) KB2315, (7) KB2324, (8) KB2325, (9) KB2328, (10) KB2329, (11) KB2336, (12) KB2337, (13) KB2350, (14) KB2356, (15) KB2358, (16) KB2359, (17) KB2369, (18) KB2372, and (19) KB2399. The derivative compounds were also tested in the competitive inhibition assay as described above.

[2] = target: hFc-fused hLRRC4B and FAM19A5 complex formation (Homo sapiens, UniProt Q7Z5A7); experiment: Competitive inhibition assay (IC50), plate coated with LRRC4B(453-576, TT/TT)-hFc; assay type: binding; settings: for IC50: Table 14, LRRC4B(453-576, TT/TT)-hFc 100 nM coat, peptide 0.03-1000 nM, read-out: IC50 (nM), Inhibition on Complex Formulation between human LRRC4B protein and recombinant FAM19A5 protein (1 ng/mL)
Experimental: The in silico analysis provided in Example 9 highlighted that certain T12 and L13 double mutants might be important in improving the binding affinity of the polypeptides of the present disclosure to the FAM19A5 protein. Therefore, the ability of both the wild-type FB-21 peptide (which is the same as the FB-20 peptide described herein except that the FB-21 peptide additionally contains an alanine at the C-terminus) and several FB-21 mutants were tested for their inhibitor effect on hFc-fused hLRRC4B and FAM19A5 complex formation. Briefly, plate was coated with 100 nM of LRRC4B(453-576, TT/TT)-hFc and then 1 ng/ml of rFAM19A5 was incubated at 37° C. in the presence of increasing concentrations of the different FB-21 peptide fragments (0.03, 0.1, 0.3, 1, 3, 10, 30, 100, 300 and 1000 nM). The LRRC4B-bound FAM19A5 levels were measured using HRP-conjugated 1-65 antibody.

[3] = target: interaction between His-TEV LRRC4B and rFAM19A5 (Homo sapiens, UniProt Q7Z5A7); experiment: Competitive inhibition assay (IC50), plate coated with His-TEV LRRC4B; assay type: binding; settings: Table 15; His-TEV LRRC4B 100 nM coat; peptide 0.3-10000 nM; read-out: IC50 (nM), Inhibition on Complex Formulation between LRRC4B protein and recombinant FAM19A5 protein (1 ng/ml)
Experimental: To further assess the inhibitory effect of the FB-21 mutants, the ability of additional FB-21 mutants described in Example 9 were tested for their ability to inhibit the interaction between FAM19A5 protein and LRRC4B protein. Briefly, plates were coated with 100 nM of His-TEV LRRC4B and then 1 ng/mL of rFAM19A5 was incubated at 37° C. in the presence of increasing concentrations of the FB-21 peptide fragments (0.3, 1, 3, 10, 30, 100, 300, 1000, 3000 and 10000 nM). The LRRC4B-bound FAM19A5 levels were measured using HRP-conjugated 1-65 SS01 antibody. As shown in FIG. 22B (see Table 15 for IC50), most (if not all) of the FB-21 mutants had improved ability in inhibiting the interaction between LRRC4B and recombinant FAM19A5 protein.
Next, to assess whether other properties of the polypeptides described herein can be improved (e.g., solubility, prevention of degradation from protease and peptidase, and in vivo administration), the following additional FB-21 peptide mutants were constructed and tested for their ability to inhibit the interaction between FAM19A5 protein and LRRC4B: (1) d-form FB-21 peptide (“dFB-21”), (2) d-form FB-21 peptide with juxta-membrane (JM) sequence (“dFB-JM-31”), (3) d-form FB-21 peptide with BBB penetrating sequence at each end of the sequence (“dFB-BBB-39”), and (4) d-form FB-21 mutant peptide with DY replacement and additional JM sequence (“dFB-DY-JM31”). The sequence for d-form FB-21 peptide is set forth in SEQ ID NO: 153 (nYTYFTTVTVETLETQPGEEa; wherein the lowercase amino acids represent D-form of the amino acid, and the uppercase amino acids represent L-form of the amino acid). The sequence for dFB-BBB-39 is set forth in SEQ ID NO: 154 (n[…]l; wherein the lowercase amino acids represent D-form of the amino acid, and the uppercase amino acids represent L-form of the amino acid). The sequence for dFB-JM-31 is set forth in SEQ ID NO: 155 (n[…]a; wherein the lowercase amino acids represent D-form of the amino acid, and the uppercase amino acids represent L-form of the amino acid). The sequence for dFB-DY-JM31 is set forth in SEQ ID NO: 156 (n[…]a; wherein the lowercase amino acids represent D-form of the amino acid, and the uppercase amino acids represent L-form of the amino acid). The overall experimental methods were the same as those described immediately above.

FAM19A5 protein [4] = target: T1, FAM19A5 protein (Homo sapiens, UniProt Q7Z5A7); experiment: competitive inhibition ELISA, 20 nM peptide, rFAM19A5 5 ng/mL; competitor: coated LRRC4B(36-576)-hFc
FAM19A5 protein [5] = target: T1, FAM19A5 protein; experiment: competitive inhibition ELISA, 20 nM peptide, rFAM19A5 1 ng/mL; competitor: coated LRRC4B(453-576)-hFc
FAM19A5 protein [6] = target: T1, FAM19A5 protein; experiment: competitive inhibition ELISA; competitor: coated LRRC4B(453-576)-hFc
FAM19A5 protein [7] = target: T1, FAM19A5 protein; experiment: competitive inhibition ELISA; competitor: coated LRRC4B(36-576)-hFc
FAM19A5 protein [8] = target: T1, FAM19A5 protein; experiment: competitive inhibition ELISA, 20 nM peptide, rFAM19A5 1 ng/mL; competitor: coated LRRC4B(453-576)-hFc; remark: listed apart in the source
FAM19A5 protein [9] = target: T1, FAM19A5 protein; experiment: competitive inhibition ELISA, 20 nM peptide, rFAM19A5 5 ng/mL; competitor: coated LRRC4B(36-576)-hFc; remark: listed apart in the source

interaction between Fc conjugated LRRC4B (amino acids 453-576) protein fragment and FAM19A5 protein, sequence (Q7Z5A7 44-132): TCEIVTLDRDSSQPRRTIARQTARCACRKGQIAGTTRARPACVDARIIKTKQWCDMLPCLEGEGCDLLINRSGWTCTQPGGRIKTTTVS

reduction of interaction between FAM19A5 and the coated LRRC4B protein fragment compared to the controls ([1]; 100 μM compound, FAM19A5 1 ng/mL): about 10%
effect of increasing concentration on LRRC4B-FAM19A5 interaction (in words) [1]: greater reduction in the interaction
Molecule: CCCCC[C@@H](O)C#Cc1ccc(O)c(OC)c1 [KB2357, (R)-4-(3-Hydroxyoct-1-yn-1-yl)-2-methoxyphenol]

Molecule: CCCCC[C@H](O)C#Cc1ccc(O)c(OC)c1 [KB2358, (S)-4-(3-Hydroxyoct-1-yn-1-yl)-2-methoxyphenol]
effect of increasing concentration on LRRC4B-FAM19A5 interaction (in words) [1]: able to reduce the interaction in a dose-dependent manner

Molecule: CCCCCC(O)/C=C\c1ccc(O)c(OC)c1 (stereo not shown) [KB2356, (Z)-4-(3-Hydroxyoct-1-en-1-yl)-2-methoxyphenol]
effect of increasing concentration on LRRC4B-FAM19A5 interaction (in words) [1]: able to reduce the interaction in a dose-dependent manner

IC50 [2]: 4.1 nM
increase in ability to dissociate the LRRC4B-FAM19A5 complex compared with wild-type FB-21 ([2]; from IC50 of Table 14): 2.9 folds
IC50 [3]: 46.7 nM
Molecule: GYTYFTTVTVEWYETQPGEEA [FB-21 (W12Y13)]

IC50 [2]: 11.9 nM
IC50 [3]: 138 nM
Molecule: GYTYFTTVTVETLETQPGEEA [FB-21 (wild-type)]

Inhibition rate (%) (FAM19A5 protein [4]): 65.7%
Inhibition rate (%) (FAM19A5 protein [5]): 40.4%
Molecule: NFSYFSTVTVETMEPSQDERTTR [FBC4C-23]

Inhibition rate (%) (FAM19A5 protein [6]): 63.2%
Inhibition rate (%) (FAM19A5 protein [7]): 77%
Inhibition rate (%) (FAM19A5 protein [8]): 62%
Inhibition rate (%) (FAM19A5 protein [4]): 77%
Inhibition rate (%) (FAM19A5 protein [5]): 63.2%
Inhibition rate (%) (FAM19A5 protein [9]): 84.3%
Molecule: GYTYFTTVTVETLETQPGEE [FB-20]

Inhibition rate (%) (FAM19A5 protein [4]): 64.1%
Inhibition rate (%) (FAM19A5 protein [5]): 40.4%
Molecule: NYSFFTTVTVETTEISPEDTTRK [FBC4-23]
